B1: Hammerhead Ribozyme (parent)
chain: ACCGGAUGUGCUUUCCGGUCUGAUGAGUCCGUGAGGACGAAACAG

In the RNAGym collection of RNA variant scans (doi:10.7554/elife.80360) one finds self-cleavage data, which are given here for 57 variants.

In this data set the parent is B1. As to the kind of experiment: self-cleavage, relative activity (ratio to wild type); higher = more cleavage; co-transcriptional.
As to ACCGGAUGUGCUUUCCGGUCUGAUGAGUCGGUGGGGACGAAACAG [C30G A34G], the self-cleavage stood at 0.409.

Take ACCGGAUGUGCUUUCCGGUCUGAUGAGUCGGUGCGGACGAAACAG [C30G A34C]: the self-cleavage is 0.802.

For the variant ACCGGAUGUGCUUUCCGGUCUGAUGAGUCGGUGUGGACGAAACAG [C30G A34U], the self-cleavage turned out to be 0.888.

Regarding ACCGGAUGUGCUUUCCGGUCUGAUGAGUCAGCGAGGACGAAACAG [C30A U32C], the self-cleavage is 0.879.

Take ACCGGAUGUGCUUUCCGGUCUGAUGAGUCAGAGAGGACGAAACAG [C30A U32A]: the self-cleavage came out at 0.797.

For the variant ACCGGAUGUGCUUUCCGGUCUGAUGAGUCAGGGAGGACGAAACAG [C30A U32G], the self-cleavage was determined as 0.892.

Take ACCGGAUGUGCUUUCCGGUCUGAUGAGUCAGUGAGGACAAAACAG [C30A G39A]: the self-cleavage was 0.348.

Regarding ACCGGAUGUGCUUUCCGGUCUGAUGAGUCAGUGAGGACUAAACAG [C30A G39U], the self-cleavage was 0.418.

Regarding ACCGGAUGUGCUUUCCGGUCUGAUGAGUCAGUGAGGACCAAACAG [C30A G39C], the self-cleavage worked out at 0.303.

ACCGGAUGUGCUUUCCGGUCUGAUGAGUCGGUGAGGACGAAGCAG [C30G A42G]: the self-cleavage is 0.316.

ACCGGAUGUGCUUUCCGGUCUGAUGAGUCGGUGAGGACGAACCAG [C30G A42C]: the self-cleavage was 0.306.

Regarding ACCGGAUGUGCUUUCCGGUCUGAUGAGUCGGUGAGGACGAAUCAG [C30G A42U], the self-cleavage came out at 0.227.

ACCGGAUGUGCUUUCCGGUCUGAUGAGUCGGCGAGGACGAAACAG [C30G U32C]: the self-cleavage is 0.581.

Turning to ACCGGAUGUGCUUUCCGGUCUGAUGAGUCGGAGAGGACGAAACAG [C30G U32A], the self-cleavage was found to be 0.632.

Turning to ACCGGAUGUGCUUUCCGGUCUGAUGAGUCGGGGAGGACGAAACAG [C30G U32G], the self-cleavage amounted to 0.651.

Take ACCGGAUGUGCUUUCCGGUCUGAUGAGUCGGUGAGGACGAGACAG [C30G A41G]: the self-cleavage amounted to 0.349.

In the case of ACCGGAUGUGCUUUCCGGUCUGAUGAGUCGGUGAGGACGACACAG [C30G A41C], the self-cleavage came out at 0.368.

For the variant ACCGGAUGUGCUUUCCGGUCUGAUGAGUCGGUGAGGACGAUACAG [C30G A41U], the self-cleavage was found to be 0.266.

Regarding ACCGGAUGUGCUUUCCGGUCUGAUGAGUCGGUGAGGACGAAAAAG [C30G C43A], the self-cleavage was 0.287.

Turning to ACCGGAUGUGCUUUCCGGUCUGAUGAGUCGGUGAGGACGAAAUAG [C30G C43U], the self-cleavage came to 0.276.

As for ACCGGAUGUGCUUUCCGGUCUGAUGAGUCGGUGAGGACGAAAGAG [C30G C43G], the self-cleavage is 0.267.

Consider ACCGGAUGUGCUUUCCGGUCUGAUGAGUCGGUGAGGACGAAACAA [C30G G45A], for which the self-cleavage came out at 0.403.

As to ACCGGAUGUGCUUUCCGGUCUGAUGAGUCGGUGAGGACGAAACAU [C30G G45U], the self-cleavage was 0.377.

For ACCGGAUGUGCUUUCCGGUCUGAUGAGUCGGUGAGGACGAAACAC [C30G G45C], the self-cleavage is 0.608.

Regarding ACCGGAUGUGCUUUCCGGUCUGAUGAGUCGGUGAGGACGAAACAG [C30G], the self-cleavage was 0.867.

ACCGGAUGUGCUUUCCGGUCUGAUGAGUCGGUGAGGGCGAAACAG [C30G A37G]: the self-cleavage came to 0.571.

Turning to ACCGGAUGUGCUUUCCGGUCUGAUGAGUCGGUGAGGCCGAAACAG [C30G A37C], the self-cleavage was found to be 0.337.

Take ACCGGAUGUGCUUUCCGGUCUGAUGAGUCGGUGAGGUCGAAACAG [C30G A37U]: the self-cleavage amounted to 0.358.

For ACCGGAUGUGCUUUCCGGUCUGAUGAGUCGAUGAGGACGAAACAG [C30G G31A], the self-cleavage came to 0.806.

On to ACCGGAUGUGCUUUCCGGUCUGAUGAGUCGUUGAGGACGAAACAG [C30G G31U], for which the self-cleavage was 0.88.

For ACCGGAUGUGCUUUCCGGUCUGAUGAGUCGCUGAGGACGAAACAG [C30G G31C], the self-cleavage stood at 0.926.

For ACCGGAUGUGCUUUCCGGUCUGAUGAGUCGGUGAGGAAGAAACAG [C30G C38A], the self-cleavage turned out to be 0.402.

Turning to ACCGGAUGUGCUUUCCGGUCUGAUGAGUCGGUGAGGAGGAAACAG [C30G C38G], the self-cleavage is 0.493.

In the case of ACCGGAUGUGCUUUCCGGUCUGAUGAGUCGGUGAGGAUGAAACAG [C30G C38U], the self-cleavage is 0.797.

Turning to ACCGGAUGUGCUUUCCGGUCUGAUGAGUCAGUGAGCACGAAACAG [C30A G36C], the self-cleavage worked out at 0.525.

Take ACCGGAUGUGCUUUCCGGUCUGAUGAGUCAGUGAGUACGAAACAG [C30A G36U]: the self-cleavage came out at 0.639.

Turning to ACCGGAUGUGCUUUCCGGUCUGAUGAGUCGGUGAGUACGAAACAG [C30G G36U], the self-cleavage is 0.697.

As for ACCGGAUGUGCUUUCCGGUCUGAUGAGUCGGUGAGCACGAAACAG [C30G G36C], the self-cleavage came to 0.441.

Regarding ACCGGAUGUGCUUUCCGGUCUGAUGAGUCGGUGAGAACGAAACAG [C30G G36A], the self-cleavage stood at 0.553.

Consider ACCGGAUGUGCUUUCCGGUCUGAUGAGUCGGUGAGGACGCAACAG [C30G A40C], for which the self-cleavage is 0.425.

Turning to ACCGGAUGUGCUUUCCGGUCUGAUGAGUCGGUGAGGACGUAACAG [C30G A40U], the self-cleavage turned out to be 0.283.

For ACCGGAUGUGCUUUCCGGUCUGAUGAGUCGGUGAGGACGGAACAG [C30G A40G], the self-cleavage was found to be 0.305.

For the variant ACCGGAUGUGCUUUCCGGUCUGAUGAGUCGGUGACGACGAAACAG [C30G G35C], the self-cleavage was found to be 1.03.

In the case of ACCGGAUGUGCUUUCCGGUCUGAUGAGUCGGUGAUGACGAAACAG [C30G G35U], the self-cleavage came to 1.04.

Take ACCGGAUGUGCUUUCCGGUCUGAUGAGUCGGUGAAGACGAAACAG [C30G G35A]: the self-cleavage amounted to 1.06.

Turning to ACCGGAUGUGCUUUCCGGUCUGAUGAGUCGGUGAGGACGAAACUG [C30G A44U], the self-cleavage worked out at 0.367.

Consider ACCGGAUGUGCUUUCCGGUCUGAUGAGUCGGUGAGGACGAAACCG [C30G A44C], for which the self-cleavage is 0.363.

On to ACCGGAUGUGCUUUCCGGUCUGAUGAGUCGGUGAGGACGAAACGG [C30G A44G], for which the self-cleavage is 0.769.

Consider ACCGGAUGUGCUUUCCGGUCUGAUGAGUCGGUGAGGACUAAACAG [C30G G39U], for which the self-cleavage was 0.337.

On to ACCGGAUGUGCUUUCCGGUCUGAUGAGUCGGUGAGGACAAAACAG [C30G G39A], for which the self-cleavage came out at 0.26.

For ACCGGAUGUGCUUUCCGGUCUGAUGAGUCGGUGAGGACCAAACAG [C30G G39C], the self-cleavage was 0.334.

As for ACCGGAUGUGCUUUCCGGUCUGAUGAGUCAGUGAGGACGAAACAU [C30A G45U], the self-cleavage turned out to be 0.545.

For ACCGGAUGUGCUUUCCGGUCUGAUGAGUCAGUGAGGACGAAACAA [C30A G45A], the self-cleavage was found to be 0.575.

As to ACCGGAUGUGCUUUCCGGUCUGAUGAGUCAGUGAGGACGAAACAC [C30A G45C], the self-cleavage worked out at 0.454.

Take ACCGGAUGUGCUUUCCGGUCUGAUGAGUCGGUCAGGACGAAACAG [C30G G33C]: the self-cleavage stood at 0.807.

In the case of ACCGGAUGUGCUUUCCGGUCUGAUGAGUCGGUAAGGACGAAACAG [C30G G33A], the self-cleavage was 0.715.

Take ACCGGAUGUGCUUUCCGGUCUGAUGAGUCGGUUAGGACGAAACAG [C30G G33U]: the self-cleavage was 1.02.
